Data: US20230227512A1 (published 2023)

Legend:
[1] = target: BG505.SOSIP.664.201C-433C HIV-1 Env ectodomain trimer; assay: SPR
[2] = target: T1, BG505 SOSIP.664 trimer+sCD4 complex (human, UniProt P01730 26-208); assay: SPR; 17b capture
[3] = target: BG505 SOSIP.664 HIV-1 Env ectodomain trimer; assay: SPR; CD4 Ig capture
[4] = target: BG505.SOSIP.664.201C-433C HIV-1 Env ectodomain trimer; assay: BLI
[5] = target: BG505.SOSIP.664.201C-433C HIV-1 Env ectodomain trimer; assay: SPR; remark: listed apart in the source
[6] = target: BG505 SOSIP.664 HIV-1 Env ectodomain trimer; assay: SPR
[7] = target: BG505.SOSIP.664.201C-433C HIV-1 Env ectodomain trimer; assay: BLI; remark: listed apart in the source
[8] = target: BG505 SOSIP.664 HIV-1 Env ectodomain trimer; assay: BLI
[9] = target: BG505 SOSIP.664 HIV-1 Env ectodomain trimer; assay: SPR; 2G12 capture
[10] = target: BG505 SOSIP.664 HIV-1 Env ectodomain trimer; assay: SPR; CD4 Ig capture; remark: listed apart in the source
[11] = target: T1, BG505 SOSIP.664 trimer+sCD4 complex; assay: SPR
[12] = target: BG505.SOSIP.664.201C-433C HIV-1 Env ectodomain trimer; assay: SPR; +sCD4

B1: 35O22 Fab (Fab, V domains shown)
VH: QGQLVQSGAELKKPGASVKISCKTSGYRFNFYHINWIRQTAGRGPEWMGWISPYSGDKNLAPAFQDRVIMTTDTEVPVTSFTSTGAAYMEIRNLKFDDTGTYFCAKGLLRDGSSTWLPYLWGQGTLLTVSS
VL: QSVLTQSASVSGSLGQSVTISCTGPNSVCCSHKSISWYQWPPGRAPTLIIYEDNERAPGISPRFSGYKSYWSAYLTISDLRPEDETTYYCCSYTHNSGCVFGTGTKVSVL
- Kd [1]: 3.04 nM
- Kd [2]: 27.2 nM
- Kd [3]: 28 nM
- Kd [4]: 27.7 nM

B2: F105 antibody (antibody, V domains shown)
VH: QVQLQESGPGLVKPSETLSLTCTVSGGSISSHYWSWIRQSPGKGLQWIGYIYYSGSTNYSPSLKSRVTISVETAKNQFSLKLTSMTAADTAVYYCARGPVPAVFYGDYRLDPWGQGTLVTVSS
VL: EIVLTQSPGTLSLSAGERATLSCRASQSVSSRYLAWYQQKPGQAPRLLIYGASSRATGIPDRFSGSGSGTDFTLTISRVEPEDFAVYYCQQYDNSVCTFGQGTKLEIK
- Kd [5]: > 1000 nM
- Kd [6]: > 1000 nM
- Kd [7]: > 4000 nM
- Kd [8]: > 4000 nM

B3: PGT151 Fab (Fab, V domains shown)
VH: RVQLVESGGGVVQPGKSVRLSCVVSDFPFSKYPMYWVRQAPGKGLEWVAAISGDAWHVVYSNSVQGRFLVSRDNVKNTLYLEMNSLKIEDTAVYRCARMFQESGPPRLDRWSGRNYYYYSGMDVWGQGTTVTVSS
VL: DIVMTQTPLSLSVTPGQPASISCKSSESLRQSNGKTSLYWYRQKPGQSPQLLVFEVSNRFSGVSDRFVGSGSGTDFTLRISRVEAEDVGFYYCMQSKDFPLTFGGGTKVDLKR
- Kd [5]: 78.4 nM
- Kd [6]: 158 nM
- Kd [7]: 202 nM
- Kd [8]: 135 nM
- Kd [9]: 144 nM
- Kd [10]: 106 nM

B4: VRC01 (antibody, V domains shown)
VH: QVQLVQSGGQMKKPGESMRISCRASGYEFIDCTLNWIRLAPGKRPEWMGWLKPRGGAVNYARPLQGRVTMTRDVYSDTAFLELRSLTVDDTAVYFCTRGKNCDYNWDFEHWGRGTPVIVSS
VL: EIVLTQSPGTLSLSPGETAIISCRTSQYGSLAWYQQRPGQAPRLVIYSGSTRAAGIPDRFSGSRWGPDYNLTISNLESGDFGVYYCQQYEFFGQGTKVQVDI
- Kd [1]: 1.43 nM
- Kd [4]: 2.81 nM

B5: PGT145 antibody (antibody, V domains shown)
VH: QVQLVQSGAEVKKPGSSVKVSCKASGNSFSNHDVHWVRQATGQGLEWMGWMSHEGDKTGLAQKFQGRVTITRDSGASTVYMELRGLTADDTAIYYCLTGSKHRLRDYFLYNEYGPNYEEWGDYLATLDVWGHGTAVTVSS
VL: EVVITQSPLFLPVTPGEAASLSCKCSHSLQHSTGANYLAWYLQRPGQTPRLLIHLATHRASGVPDRFSGSGSGTDFTLKISRVESDDVGTYYCMQGLHSPWTFGQGTKVEIK
- Kd [5]: 7.22 nM
- Kd [6]: 4.38 nM
- Kd [7]: 1.68 nM
- Kd [8]: 1.8 nM
- Kd [9]: 22.8 nM

B6: 447-52D antibody (antibody, V domains shown)
VH: EVQLVESGGGLVKPGGSLRLTCVASGFTFSDVWLNWVRQAPGKGLEWVGRIKSRTDGGTTDYAASVKGRFTISRDDSKNTLYLQMNSLKTEDTAVYSCTTDGFIMIRGVSEDYYYYYMDVWGKGTTVTVSS
VL: QSVLTQPPSVSAAPGQKVTISCSGSSSNIGNNYVLWYQQFPGTAPKLLIYGNNKRPSGIPDRFSGSKSGTSATLGITGLQTGDEADYFCATWDSGLSADWVFGGGTKLTVL
- Kd [5]: > 1000 nM
- Kd [11]: 1.2 nM
- Kd [6]: > 1000 nM
- Kd [7]: > 4000 nM
- Kd [8]: > 4000 nM
- Kd [12]: > 1000 nM
